According to paper PMC4419694:
Each block holds one substance with its values, some of them ahead of it.

Tests used:
Assay in all cases: AUC
[1] = biological target: SSBΔ120-166 (E. coli)
[2] = biological target: SSBΔ130-166 (E. coli)
[3] = biological target: SSBΔ151-166 (E. coli)
[4] = biological target: SSBΔC8 (E. coli)

stoichiometry N [1]: 4
Substance: SSBΔ120-166 (natural protein)

stoichiometry N [2]: 4
Substance: SSBΔ130-166 (natural protein)

stoichiometry N [3]: 4
Substance: SSBΔ151-166 (natural protein)

stoichiometry N [4]: 4
Substance: SSBΔC8 (domain or fragment)
